Blank lines part the entries; values can stand above or below the binder they belong to.
How the values were obtained:
[1] = target: T1, KIR3DL2 mutant M10 (R136K;E141K) (human, UniProt P43630 22-455); experiment: flow cytometry on HEK-293T cells transfected with the mutant; + no significant loss of binding, ± decrease
T1 construct: Expressed on transfected HEK-293T cells; also called Number 10

[2] = target: T2, KIR3DL2 mutant M11A5 (V147A;Q149S) (human, UniProt P43630 22-455); experiment: as above
T2 construct: Expressed on transfected HEK-293T cells; also called Number 28 (11A5)

[3] = target: T3, KIR3DL2 mutant M7 (L113V;T118R) (human, UniProt P43630 22-455); experiment: as above
T3 construct: Expressed on transfected HEK-293T cells; also called Number 7

[4] = target: T4, KIR3DL2 mutant M11A3 (N99S;H100S;Q184A) (human, UniProt P43630 22-455); experiment: as above
T4 construct: Expressed on transfected HEK-293T cells; also called Number 26 (11A3)

[5] = target: T5, KIR3DL2 mutant M9 (L164M;P166L;V167A) (human, UniProt P43630 22-455); experiment: as above
T5 construct: Expressed on transfected HEK-293T cells; also called Number 9

[6] = target: T6, KIR3DL2 mutant M11A6 (I150A;M128A) (human, UniProt P43630 22-455); experiment: as above
T6 construct: Expressed on transfected HEK-293T cells; also called Number 29 (11A6)

[7] = target: T7, KIR3DL2 mutant M11A4 (E130S;H131S;R145S) (human, UniProt P43630 22-455); experiment: as above
T7 construct: Expressed on transfected HEK-293T cells; also called Number 27 (11A4)

[8] = target: T8, KIR3DL2 mutant M8 (V127I) (human, UniProt P43630 22-455); experiment: as above
T8 construct: Expressed on transfected HEK-293T cells; also called Number 8; Mutant 8

[9] = target: T9, KIR3DL2 mutant M8 + 11 (V127I;P179T;S181T) (human, UniProt P43630 22-455); experiment: flow cytometry on HEK-293T cells transfected with the mutant; - means substantially complete loss of binding
T9 construct: Expressed on transfected HEK-293T cells; also called Number 23 (8 + 11)

[10] = target: T10, KIR3DL2 mutant M5 + 11 (P66T;P179T;S181T) (human, UniProt P43630 22-455); experiment: as above
T10 construct: Expressed on transfected HEK-293T cells; also called Number 22 (5 + 11)

[11] = target: T11, KIR3DL2 mutant M11 (P179T;S181T) (human, UniProt P43630 22-455); experiment: as above
T11 construct: Expressed on transfected HEK-293T cells; also called Number 11; mutant 11

[12] = target: T12, KIR3DL2 mutant M11A1 (V178A;H180S) (human, UniProt P43630 22-455); experiment: as above
T12 construct: Expressed on transfected HEK-293T cells; also called Number 24 (11A1); mutant 11A1

[13] = target: T13, wild-type human KIR3DL2 (allele *002) expressed on transfected HEK-293T cells (human, UniProt P43630 22-455); experiment: flow cytometry on transfected HEK-293T cells
T13 construct: also called HEK-293T/KIR3DL2; WTaKIR3DL2

[14] = target: T14, KIR3DL2 mutant 2A2 (Q56S, E57A) (human, UniProt P43630 22-455); experiment: flow cytometry on HEK-293T cells transfected with the mutant
T14 construct: Expressed on transfected HEK-293T cells; also called Number 34 (1 + 2 A2)

[15] = target: T15, KIR3DL2 mutant MD0/HLA1 (F9S, S11A) (human, UniProt P43630 22-455); experiment: as above
T15 construct: Expressed on transfected HEK-293T cells; also called Number 31 (D0-HLA1)

[16] = target: T16, KIR3DL2 mutant 2 (I60N, G62S) (human, UniProt P43630 22-455); experiment: as above
T16 construct: The running text prints 160N for I60N; Expressed on transfected HEK-293T cells; also called Number 2

[17] = target: T17, KIR3DL2 mutant 1 (R13W, A25T, Q27R) (human, UniProt P43630 22-455); experiment: as above
T17 construct: Expressed on transfected HEK-293T cells; also called Number 1

[18] = target: T9, KIR3DL2 mutant M8 + 11 …; experiment: flow cytometry on HEK-293T cells transfected with the mutant; + no significant loss of binding, ± decrease
[19] = target: T11, KIR3DL2 mutant M11 (P179T;S181T); experiment: as above
[20] = target: T12, KIR3DL2 mutant M11A1 (V178A;H180S); experiment: as above
[21] = target: T18, KIR3DL2 recombinant protein (R&D Systems) (human, UniProt P43630 28-340); experiment: SCK kinetic method
T18 construct: Bought protein; also called rec KIR3DL2; recombinant KIR3DL2-Fc fusion protein; not shown: Fc part of the bought fusion protein; not described

[22] = target: T19, KIR3DL2 on fresh Sezary Syndrome cells of patients (human, UniProt P43630 22-455); experiment: flow cytometry of whole blood of a Sezary Syndrome patient, antibody + GaM-PE against CD4; upper gate (CD4+ KIR3DL2+ leukemic Sezary cells)
T19 construct: whole, on cells; also called SS cells

[23] = target: T20, NK cells, including normal KIR3DL2+ NK cells (Homo sapiens, UniProt P43630); experiment: flow cytometry of whole blood of a Sezary Syndrome patient, antibody + GaM-PE against CD4; lower gate (CD4-negative NK cells)
T20 construct: full-length receptor on the cell surface; also called gate NK GaM PE+; KIR3DL2 on CD4-negative NK cells in the blood of the Sezary Syndrome patient

[24] = target: T6, KIR3DL2 mutant M11A6 (I150A;M128A); experiment: flow cytometry on HEK-293T cells transfected with the mutant; - means substantially complete loss of binding
[25] = target: T7, KIR3DL2 mutant M11A4 (E130S;H131S;R145S); experiment: as above
[26] = target: T21, KIR3DL2 at the surface of HUT78 Sezary Syndrome cell line (human, UniProt P43630 22-455); experiment: flow cytometry competition on HUT78 cells; naked antibody titrated against 15C11-PE (5 µg/ml)
T21 construct: whole, on cells; Two alleles are expressed

[27] = target: T22, KIR3DL1 expressed on cells (human, UniProt P43629 22-444); experiment: flow cytometry on HEK KIR3DL1 cells (row HEK-KIR3DL1)
T22 construct: also called HEK-293T/KIR3DL1
T22 sequence (P43629 22-444 limits assumed): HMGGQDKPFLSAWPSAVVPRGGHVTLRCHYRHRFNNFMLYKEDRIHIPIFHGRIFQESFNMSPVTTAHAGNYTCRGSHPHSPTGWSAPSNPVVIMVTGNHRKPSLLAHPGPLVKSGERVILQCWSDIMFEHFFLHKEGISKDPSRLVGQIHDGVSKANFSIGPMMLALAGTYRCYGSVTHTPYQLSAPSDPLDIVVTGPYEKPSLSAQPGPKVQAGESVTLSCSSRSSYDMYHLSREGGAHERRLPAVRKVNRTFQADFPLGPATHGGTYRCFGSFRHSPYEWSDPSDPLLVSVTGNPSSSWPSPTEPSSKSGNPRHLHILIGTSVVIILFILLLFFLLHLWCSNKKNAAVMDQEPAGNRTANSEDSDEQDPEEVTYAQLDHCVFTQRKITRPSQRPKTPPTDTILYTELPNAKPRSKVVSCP

[28] = target: T18, KIR3DL2 recombinant protein (R&D …); experiment: SPR (Biacore T100), antibody injected over immobilised recombinant KIR3DL2, bivalent affinity, pH 7.2
[29] = target: T23, KIR2DS4 on transfected BWZ cells (UniProt P43632 22-304, limits assumed); experiment: flow cytometry on transfected BWZ cells
T23 construct: whole, on cells
T23 sequence (P43632 22-304 limits assumed): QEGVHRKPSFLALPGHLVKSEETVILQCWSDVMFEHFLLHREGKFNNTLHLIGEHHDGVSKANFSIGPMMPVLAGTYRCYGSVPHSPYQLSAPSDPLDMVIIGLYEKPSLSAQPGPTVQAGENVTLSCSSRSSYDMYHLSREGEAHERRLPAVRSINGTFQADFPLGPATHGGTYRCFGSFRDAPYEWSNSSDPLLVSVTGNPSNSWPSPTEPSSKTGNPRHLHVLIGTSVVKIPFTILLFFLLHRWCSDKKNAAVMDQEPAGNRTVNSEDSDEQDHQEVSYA

[30] = target: T24, KIR2DL1 on transfected BWZ cells (UniProt P43626 22-348, limits assumed); experiment: flow cytometry on transfected BWZ cells
T24 construct: whole, on cells
T24 sequence (P43626 22-348 limits assumed): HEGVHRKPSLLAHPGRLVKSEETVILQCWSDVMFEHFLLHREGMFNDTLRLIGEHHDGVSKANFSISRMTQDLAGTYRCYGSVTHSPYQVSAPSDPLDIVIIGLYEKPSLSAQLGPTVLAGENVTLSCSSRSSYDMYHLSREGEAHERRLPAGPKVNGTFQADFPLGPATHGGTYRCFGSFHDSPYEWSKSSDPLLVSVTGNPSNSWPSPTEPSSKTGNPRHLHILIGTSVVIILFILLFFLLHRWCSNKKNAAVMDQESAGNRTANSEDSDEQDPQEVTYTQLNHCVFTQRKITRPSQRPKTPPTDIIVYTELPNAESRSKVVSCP

[31] = target: T25, KIR2DS2 on transfected BWZ cells (UniProt P43631 22-304, limits assumed); experiment: flow cytometry on transfected BWZ cells
T25 construct: whole, on cells
T25 sequence (P43631 22-304 limits assumed): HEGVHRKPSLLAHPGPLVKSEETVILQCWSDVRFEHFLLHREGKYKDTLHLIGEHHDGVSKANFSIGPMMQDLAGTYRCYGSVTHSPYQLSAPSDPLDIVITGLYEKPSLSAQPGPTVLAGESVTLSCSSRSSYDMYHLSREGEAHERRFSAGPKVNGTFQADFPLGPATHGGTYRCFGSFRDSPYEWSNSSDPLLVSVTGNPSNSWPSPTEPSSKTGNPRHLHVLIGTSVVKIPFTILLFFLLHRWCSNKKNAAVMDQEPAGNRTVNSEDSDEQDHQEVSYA

[32] = target: T26, KIR2DS1 on transfected BWZ cells (UniProt Q14954 22-304, limits assumed); experiment: flow cytometry on transfected BWZ cells
T26 construct: whole, on cells; also called BWZ-KIR2DS1
T26 sequence (Q14954 22-304 limits assumed): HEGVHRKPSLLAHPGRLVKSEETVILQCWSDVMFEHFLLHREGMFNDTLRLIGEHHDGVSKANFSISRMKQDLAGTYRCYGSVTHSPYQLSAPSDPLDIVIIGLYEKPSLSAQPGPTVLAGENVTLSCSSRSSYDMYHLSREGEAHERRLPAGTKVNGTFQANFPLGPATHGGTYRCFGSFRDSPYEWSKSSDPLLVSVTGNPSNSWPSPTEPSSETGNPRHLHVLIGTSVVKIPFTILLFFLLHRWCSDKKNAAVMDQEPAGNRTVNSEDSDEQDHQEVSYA

[33] = target: T27, KIR2DL3 on transfected BWZ cells (UniProt P43628 22-341, limits assumed); experiment: flow cytometry on transfected BWZ cells
T27 construct: whole, on cells
T27 sequence (P43628 22-341 limits assumed): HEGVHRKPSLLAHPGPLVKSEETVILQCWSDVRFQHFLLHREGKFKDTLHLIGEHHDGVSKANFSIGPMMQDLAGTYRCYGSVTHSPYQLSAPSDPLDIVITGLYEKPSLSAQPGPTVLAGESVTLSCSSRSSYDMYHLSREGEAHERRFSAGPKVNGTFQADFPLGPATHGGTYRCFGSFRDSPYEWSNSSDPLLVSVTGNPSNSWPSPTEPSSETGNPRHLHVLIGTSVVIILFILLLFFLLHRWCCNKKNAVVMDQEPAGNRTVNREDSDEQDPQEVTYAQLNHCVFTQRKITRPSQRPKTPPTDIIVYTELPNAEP

- binding result [1]: binds
- binding result [2]: binds
- binding result [3]: binds
- binding result [4]: binds
- binding result [5]: binds
- binding result [6]: binds
- binding result [7]: binds
- binding result [8]: binds
- binding result [9]: no binding
- binding result [10]: no binding
- binding result [11]: no binding
- binding result [12]: no binding
- binding result [13]: binds
B1: antibody 12B11 (antibody, V domains shown)
VH: QLVQSGPELKNPGETVKISCKASGYTFTNYGMNWVKQAPGKGLKWMGWINTYTGEPTYADDFKGRFAFSLETSASTAYLQINNLKNEDTATYFCAHGPWLAYWGQGTLVTVS
VL: DIKMTQSPSSMYASLGERVTITCKASQDINVYLSWFQQKPGKSPKTLIYRAIRLVDGVPSRFSGSGSGQDYSLTISSLDYEDMGIYYCLQYDELPYTFGGGTKLEIE

- binding result [14]: binds
- binding result [15]: binds
- binding result [16]: no binding
- binding result [17]: no binding
B2: antibody 13H1 (antibody, V domains shown)
VH: EVQLQQSGPELVKPGASMKISCKASHYSFIGYTMNWVKQRHGKNLEWIGLINPYNGDTTYNQKFKGKASLTVDKSSSTAYMEILSLTSEDSAVYYCARENWGYPYAMDYWGQGTSVTVS
VL: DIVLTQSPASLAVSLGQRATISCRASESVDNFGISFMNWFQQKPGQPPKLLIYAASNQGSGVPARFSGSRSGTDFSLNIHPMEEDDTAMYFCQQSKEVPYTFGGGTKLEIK

- binding result [1]: binds
- binding result [2]: binds
- binding result [18]: binds
- binding result [3]: binds
- binding result [4]: binds
- binding result [5]: binds
- binding result [19]: binds
- binding result [20]: binds
- Kd [21]: 370 pM
- koff [21]: 0.00011 s⁻¹
- % of cells in gate CD4 GaM PE+ [22]: 7.6%
- % of cells in gate NK GaM PE+ [23]: 12.7%
- binding result [24]: no binding
- binding result [25]: no binding
- IC50 (read off the curve) [26]: ~0.4 µg/mL
- binding result [27]: no binding
- Kd [28]: 780 pM
- binding result [29]: no binding (tested: 10 µg/ml)
- binding result [30]: no binding (tested: 10 µg/ml)
- binding result [31]: no binding (tested: 10 µg/ml)
- binding result [32]: no binding (tested: 10 µg/ml)
- binding result [33]: no binding (tested: 10 µg/ml)
B3: antibody 15C11 (antibody, mouse IgG2a, V domains shown)
VH: EVKLEESGGGLVQPGGSMKLSCAASGFTFSDAWMDWVRQSPEKGLEWVAEIRSKANNHATYYAESVKGRFTISRDDSKSSVYLRMNSLRAEDTGIYYCTGGYYPVYWGQGTLVTVSA
VL: DIQMTQSPSSLSASLGGKVTITCKASQDINKNIAWYQHKPGKGPRLLIHYTSTLQPGFPSRFSGSGSGRDYSFSISNLEPEDLATYYCLQYDNLLTFGGGTKLEIK
notes: also called M-K32-15C11; 15C11-PE (PE-labelled form)
